Assay results reported in patent publication US20240376213A1 (YEDA RESEARCH AND DEVELOPMENT, published 2024).

Legend:
[1] = molecular target: T1, mouse PD-1 on cells (HEK293 cells stably overexpressing mPD-1; PD-1+ CD8+ OT-1 T cells) (mouse, UniProt Q02242 25-288); assay: dual-binding FACS doublet assay, 1:1 mix of CFSE/CellTrace-stained HEK293 cells expressing each target (FIG. 4A)
T1 construct: whole, on cells; also called HEK293-mPD-1
T1 sequence (looked up): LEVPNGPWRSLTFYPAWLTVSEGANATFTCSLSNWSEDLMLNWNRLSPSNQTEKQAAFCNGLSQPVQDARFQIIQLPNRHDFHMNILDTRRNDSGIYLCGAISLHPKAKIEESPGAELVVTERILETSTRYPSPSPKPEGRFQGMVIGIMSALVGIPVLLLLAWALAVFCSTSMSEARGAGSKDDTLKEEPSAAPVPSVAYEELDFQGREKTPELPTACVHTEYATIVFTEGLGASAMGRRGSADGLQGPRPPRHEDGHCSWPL

[2] = molecular target: T2, mouse CLEC9A on cells (HEK293 cells stably overexpressing mCLEC9A; cDC1 among mouse splenocytes) (mouse, UniProt Q8BRU4 1-238); assay: as above
T2 construct: whole, on cells
T2 sequence (looked up): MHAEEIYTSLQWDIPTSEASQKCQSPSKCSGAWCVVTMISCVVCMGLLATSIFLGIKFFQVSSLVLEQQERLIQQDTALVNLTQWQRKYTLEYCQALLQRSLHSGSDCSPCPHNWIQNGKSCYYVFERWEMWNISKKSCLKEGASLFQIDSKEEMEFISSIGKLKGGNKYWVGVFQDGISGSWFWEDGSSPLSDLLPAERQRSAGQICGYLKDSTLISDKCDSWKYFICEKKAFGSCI

[3] = molecular target: T3, recombinant extracellular domain of mouse PD-1 (Sino Biological) (mouse, UniProt Q02242 25-169); assay: binding ELISA titration on recombinant protein (FIG. 3A)
T3 construct: extracellular domain; Coated on ELISA plates at 1 ug/mL; also called mPD-1; recombinant mouse PD-1
T3 sequence (looked up): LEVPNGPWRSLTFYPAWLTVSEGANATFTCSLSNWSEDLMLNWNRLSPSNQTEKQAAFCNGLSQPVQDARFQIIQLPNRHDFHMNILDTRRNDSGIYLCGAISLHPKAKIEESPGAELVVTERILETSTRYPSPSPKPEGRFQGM

[4] = molecular target: T4, mouse XCR1 on cells (HEK293 cells stably overexpressing mXCR1; cDC1 among mouse splenocytes) (mouse, UniProt Q9R0M1 1-322); assay: FACS binding titration on HEK293-mXCR1 cells (FIG. 3B)
T4 construct: whole, on cells
T4 sequence (looked up): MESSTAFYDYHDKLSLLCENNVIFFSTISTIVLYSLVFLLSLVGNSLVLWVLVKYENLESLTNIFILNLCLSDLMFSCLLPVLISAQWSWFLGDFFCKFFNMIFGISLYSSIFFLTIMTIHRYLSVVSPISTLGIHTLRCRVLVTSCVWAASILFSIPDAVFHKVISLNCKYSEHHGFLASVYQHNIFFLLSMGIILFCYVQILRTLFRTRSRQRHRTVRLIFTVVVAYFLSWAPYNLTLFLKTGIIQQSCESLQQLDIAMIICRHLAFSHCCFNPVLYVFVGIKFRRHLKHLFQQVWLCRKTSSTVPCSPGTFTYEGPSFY

[5] = molecular target: T3, recombinant extracellular domain of …; assay: ELISA on recombinant mouse PD-1 (FIG. 3A)

Measured: binding result

B1: PD-1/CLEC9A BiSE (bispecific immune synapse engager; anti-mouse PD-1 clone RMP1-14 arm x anti-mouse CLEC9A clone 10B4 arm) (bispecific antibody)
heavy 1: not shown
light 1: DIVMTQGTLPNPVPSGESVSITCRSSKSLLYSDGKTYLNWYLQRPGQSPQLLIYWMSTRASGVSDRFSGSGSGTDFTLKISGVEAEDVGIYYCQQGLEFPTFGGGTKLELERTVAAPSVFIFPPSDEQLKSGTASVVCLLNNFYPREAKVQWKVDNALQSGNSQESVTEQDSKDSTYSLSSTLTLSKADYEKHKVYACEVTHQGLSSPVTKSFNRGEC
heavy 2: QIVESGGGLVQPKESLKISCTASGFTFSNAAIYWVRQTPGKGLEWVGRIRTRPSKYATDYADSVRGRFTISRDDSKSMVYLQMDNLRTEDTAMYYCTPRATEDVPFYWGQGVMVTVSSASVAAPSVFIFPPSDEQLKSGTASVVCLLNNFYPREAKVQWKVDNALQSGNSQESVTEQDSKDSTYSLSSTLTLSKADYEKHKVYACEVTHQGLSSPVTKSFNRGECDRSEPKSCDKTHTCPPCPAPELLGGPSVFLFPPKPKDTLMISRTPEVTCVVVDVSHEDPEVKFNWYVDGVEVHNAKTKPREEQYASTYRVVSVLTVLHQDWLNGKEYKCKVSNKALPAPIEKTISKAKGQPREPQVCTLPPSREEMTKNQVSLSCAVKGFYPSDIAVEWESNGQPENNYKTTPPVLDSDGSFFLVSKLTVDKSRWQQGNVFSCSVMHEALHNHYTQKSLSLSPGKSAWSHPQFEK
light 2: DIVMTQTPSSQAVSAGEKVTMNCKSSQSVLYDENKKNYLAWYQQKSGQSPKLLIYWASTGESGVPDRFIGSGSGTDFTLTISSVQAEDLAVYYCQQYYDFPPTFGGGTKLELKSSASTKGPSVFPLAPSSKSTSGGTAALGCLVKDYFPEPVTVSWNSGALTSGVHTFPAVLQSSGLYSLSSVVTVPSSSLGTQTYICNVNHKPSNTKVDKKVEPKSC
notes: Knobs-into-holes, CrossMab (CH1-CL swap on the DC arm), Fc N297A, human IgG1/kappa backbone; copies: 1 + 1 + 1 + 1
binds: [1] | [2] | [3]

B2: PD-1/XCR1 BiSE (bispecific immune synapse engager; anti-mouse PD-1 clone RMP1-14 arm x anti-mouse XCR1 clone MARX10 arm) (bispecific antibody)
heavy 1: not shown
light 1: B1 light 1
heavy 2: QVQLQQPGAELVKPGASVKLSCKASGYTFTNYWIHWMKQRPGQGLEWIGMIHPNSDNTKYNEKFKAKAILTVDKSSSTAYMQLSSLTSEDSAVYYCARFANDGAYWGQGTLVTVSSASVAAPSVFIFPPSDEQLKSGTASVVCLLNNFYPREAKVQWKVDNALQSGNSQESVTEQDSKDSTYSLSSTLTLSKADYEKHKVYACEVTHQGLSSPVTKSFNRGECDRSEPKSCDKTHTCPPCPAPELLGGPSVFLFPPKPKDTLMISRTPEVTCVVVDVSHEDPEVKFNWYVDGVEVHNAKTKPREEQYASTYRVVSVLTVLHQDWLNGKEYKCKVSNKALPAPIEKTISKAKGQPREPQVCTLPPSREEMTKNQVSLSCAVKGFYPSDIAVEWESNGQPENNYKTTPPVLDSDGSFFLVSKLTVDKSRWQQGNVFSCSVMHEALHNHYTQKSLSLSPGKSAWSHPQFEK
light 2: DVVVTQTPLSLPVSLGDPASISCKSSQSLVHSNGNTYLHWYLQKPGQSPKLLIYKISNRFSGVPDRFSGSGSGTDFTLKISRVEAEDLGVYFCSQNTHVPYTFGGGTKLEIKSSASTKGPSVFPLAPSSKSTSGGTAALGCLVKDYFPEPVTVSWNSGALTSGVHTFPAVLQSSGLYSLSSVVTVPSSSLGTQTYICNVNHKPSNTKVDKKVEPKSC
notes: as for B1
binds: [4] | [1] | [5]
